Results taken from FireProtDB (doi:10.1110/ps.051838206).
Values joined by “and” are separate entries in the source; they are usually repeats but may differ in a detail not shown here. Identical values can stand only once.

Conditions: Pseudomonas aeruginosa (strain ATCC 15692 / DSM 22644 / CIP 104116 / JCM 14847 / LMG 12228 / 1C / PRS 101 / PAO1); pH 7; 25 °C; GdnHCl; Fluorescence; Tris-HCl 100 mM; reversible: Yes; whole UniProt chain shown

B1: Azurin wild type, P00282 (protein)
chain: MLRKLAAVSLLSLLSAPLLAAECSVDIQGNDQMQFNTNAITVDKSCKQFTVNLSHPGNLPKNVMGHNWVLSTAADMQGVVTDGMASGLDKDYLKPDDSRVIAHTKLIGSGEKDSVTFDVSKLKEGEQYMFFCTFPGHSALMKGTLTLK
unfolding free energy: 5.98 kcal/mol and 12.9 kcal/mol
